Substitutions are numbered along the chain they refer to. Names and notes keep the numbering of the source.
Key:
[1] = target: T1, human full-length wild type gasdermin D (hGSDMD) (human, UniProt P57764 1-484); assay: SEC
T1 sequence (looked up): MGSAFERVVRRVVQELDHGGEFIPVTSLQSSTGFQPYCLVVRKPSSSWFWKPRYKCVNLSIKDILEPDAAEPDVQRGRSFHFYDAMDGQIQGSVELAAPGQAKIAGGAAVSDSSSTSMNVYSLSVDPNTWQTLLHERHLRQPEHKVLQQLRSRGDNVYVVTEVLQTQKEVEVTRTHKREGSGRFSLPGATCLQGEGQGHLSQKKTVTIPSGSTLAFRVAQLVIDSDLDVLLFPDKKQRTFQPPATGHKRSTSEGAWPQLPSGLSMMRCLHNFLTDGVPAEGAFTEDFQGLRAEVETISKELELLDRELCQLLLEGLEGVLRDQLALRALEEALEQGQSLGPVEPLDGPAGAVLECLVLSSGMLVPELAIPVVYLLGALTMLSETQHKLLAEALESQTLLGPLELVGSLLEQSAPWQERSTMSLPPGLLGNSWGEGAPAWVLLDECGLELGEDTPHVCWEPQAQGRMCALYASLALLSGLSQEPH

[2] = target: T2, human GSDMD harboring truncation of residues 243-278 (human, UniProt P57764 1-484, truncation of residues 243-278); assay: SEC
T2 sequence (looked up): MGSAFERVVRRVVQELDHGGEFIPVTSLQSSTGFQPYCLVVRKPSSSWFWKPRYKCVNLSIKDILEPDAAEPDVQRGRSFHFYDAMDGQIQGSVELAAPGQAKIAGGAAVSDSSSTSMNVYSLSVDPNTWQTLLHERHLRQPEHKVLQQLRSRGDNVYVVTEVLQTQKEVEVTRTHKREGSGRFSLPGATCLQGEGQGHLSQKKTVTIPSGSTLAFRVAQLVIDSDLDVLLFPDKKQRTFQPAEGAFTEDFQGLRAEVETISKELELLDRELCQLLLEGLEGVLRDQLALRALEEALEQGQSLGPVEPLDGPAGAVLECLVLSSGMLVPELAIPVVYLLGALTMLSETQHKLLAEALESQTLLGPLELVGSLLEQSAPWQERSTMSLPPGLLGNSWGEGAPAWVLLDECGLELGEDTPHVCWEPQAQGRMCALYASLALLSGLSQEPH

[3] = target: T3, mouse full-length wild type gasdermin D (mGSDMD) (mouse, UniProt Q9D8T2 1-487); assay: SEC
T3 sequence (looked up): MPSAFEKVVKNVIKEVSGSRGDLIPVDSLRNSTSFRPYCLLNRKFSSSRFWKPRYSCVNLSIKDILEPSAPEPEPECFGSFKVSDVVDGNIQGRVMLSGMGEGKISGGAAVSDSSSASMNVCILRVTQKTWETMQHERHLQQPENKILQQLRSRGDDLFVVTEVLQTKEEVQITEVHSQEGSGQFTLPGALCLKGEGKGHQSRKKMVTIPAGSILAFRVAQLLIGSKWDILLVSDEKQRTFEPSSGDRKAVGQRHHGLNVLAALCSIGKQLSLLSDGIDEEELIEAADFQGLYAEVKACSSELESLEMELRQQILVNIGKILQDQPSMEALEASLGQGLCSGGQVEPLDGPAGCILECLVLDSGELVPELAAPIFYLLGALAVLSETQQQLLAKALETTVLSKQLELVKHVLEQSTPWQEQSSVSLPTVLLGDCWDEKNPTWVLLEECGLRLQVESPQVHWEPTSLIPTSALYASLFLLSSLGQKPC

crystal structure = target: the molecule itself; assay: crystal structure
[4] = target: T4, GST-Mouse full-length wild type GSDMD (mouse, UniProt Q9D8T2 1-487); assay: pull-down
T4 sequence (looked up): T3 sequence (looked up)

[5] = target: T5, GST-Mouse full-length GSDMD harboring L306A/L310A mutations (2A mutant) (mouse, UniProt Q9D8T2 1-487, L306A | L310A); assay: pull-down
T5 sequence (looked up): T3 sequence (looked up) with L306A, L310A

[6] = target: T6, GST-Mouse full-length GSDMD harboring L361A/V367A/L370A mutations (3A mutant) (mouse, UniProt Q9D8T2 1-487, L361A | V367A | L370A); assay: pull-down
T6 sequence (looked up): T3 sequence (looked up) with L361A, V367A, L370A

[7] = target: T7, GST-Mouse full-length GSDMD harboring V367A/E369K mutations (mouse, UniProt Q9D8T2 1-487, V367A | E369K); assay: pull-down
T7 sequence (looked up): T3 sequence (looked up) with V367A, E369K

[8] = target: T8, GST-Mouse full-length GSDMD harboring E369K/L370A mutations (mouse, UniProt Q9D8T2 1-487, E369K | L370A); assay: pull-down
T8 sequence (looked up): T3 sequence (looked up) with E369K, L370A

[9] = target: T9, GST-Human full-length wild type GSDMD (human, UniProt P57764 1-484); assay: pull-down
T9 sequence (looked up): T1 sequence (looked up)

[10] = target: T10, GST-Human GSDMD harboring truncation of residues 243-278 (human, UniProt P57764 1-484, truncation of residues 243-278); assay: pull-down
T10 sequence (looked up): T2 sequence (looked up)

Measured: binding result

B1: human caspase-1 (hCASP1) catalytic domain p22/p10, C285A mutant (enzyme)
chain 1: NPAMPTSSGSEGNVKLCSLEEAQRIWKQKSAEIYPIMDKSSRTRLALIICNEEFDSIPRRTGAEVDITGMTMLLQNLGYSVDVKKNLTASDMTTELEAFAHRPEHKTSDSTFLVFMSHGIREGICGKKHSEQVPDILQLNAIFNMLNTKNCPSLKDKPKVIIIQAARGDSPGVVWFKDSVGVSGNLSLPTTEEFEDD
chain 2: AIKKAHIEKDFIAFCSSTPDNVSWRHPTMGSVFIGRLIEHMQEYACSCDVEEIFRKVRFSFEQPDGRAQMPTTERVTLTRCFYLFPGH
binds: all assays above

From PMC7382298 (Immunity, 2020)
